Blank lines part the entries; values can stand above or below the sequence they belong to.
Tests used:
[1] = molecular target: HLA-A*01:01; test: IEDB peptide-MHC binding, purified MHC/competitive/fluorescence; ≥ and ≤ were set here for values at or beyond the usual limits of such assays
[2] = molecular target: HLA-A*03:01; test: as above
[3] = molecular target: HLA-A*11:01; test: as above
[4] = molecular target: HLA-A*24:02; test: as above
[5] = molecular target: HLA-B*15:01; test: as above
[6] = molecular target: HLA-A*02:01; test: as above
[7] = molecular target: HLA-B*08:02; test: IEDB peptide-MHC binding, purified MHC/direct/fluorescence; filed as Kd, often an IC50 or EC50 that approximates it; ≥ and ≤ were set here for values at or beyond the usual limits of such assays
[8] = molecular target: HLA-B*08:01; test: as above
[9] = molecular target: HLA-B*44:02; test: as above
[10] = molecular target: HLA-A*01:01; test: as above
[11] = molecular target: HLA-A*03:01; test: as above
[12] = molecular target: HLA-A*11:01; test: as above
[13] = molecular target: HLA-B*35:01; test: as above
[14] = molecular target: HLA-B*27:05; test: as above
[15] = molecular target: HLA-B*15:01; test: as above
[16] = molecular target: HLA-B*07:02; test: as above
[17] = molecular target: HLA-A*69:01; test: as above
[18] = molecular target: HLA-A*02:01; test: as above
[19] = molecular target: HLA-B*40:01; test: as above
[20] = molecular target: HLA-A*26:01; test: as above
[21] = molecular target: HLA-A*31:01; test: as above
[22] = molecular target: HLA-A*30:01; test: as above
[23] = molecular target: HLA-B*58:01; test: as above
[24] = molecular target: HLA-A*24:03; test: as above
[25] = molecular target: HLA-B*08:01; test: IEDB peptide-MHC binding, purified MHC/competitive/fluorescence; filed as Kd, often an IC50 or EC50 that approximates it; ≥ and ≤ were set here for values at or beyond the usual limits of such assays
[26] = molecular target: HLA-A*29:02; test: as above; conditions: source organism: Human betaherpesvirus 7
[27] = molecular target: HLA-A*01:01; test: as above; conditions: source organism: Human betaherpesvirus 7
[28] = molecular target: HLA-C*05:01; test: IEDB peptide-MHC binding, purified MHC/direct/fluorescence; filed as Kd, often an IC50 or EC50 that approximates it; ≥ and ≤ were set here for values at or beyond the usual limits of such assays; conditions: source organism: Homo sapiens
[29] = molecular target: HLA-C*12:03; test: as above
[30] = molecular target: HLA-B*48:01; test: as above; conditions: source organism: Burkholderia mallei
[31] = molecular target: HLA-B*46:01; test: as above; conditions: source organism: Burkholderia mallei
[32] = source organism: Vaccinia virus
[33] = source organism: Burkholderia mallei ATCC 23344
[34] = source organism: Escherichia coli O157:H7
[35] = source organism: Corynebacterium efficiens
[36] = source organism: Corynebacterium glutamicum
[37] = source organism: Shigella flexneri
[38] = source organism: Escherichia coli O6
[39] = source organism: Vaccinia virus Copenhagen
[40] = source organism: Haemophilus influenzae
[41] = source organism: Vibrio vulnificus
[42] = source organism: Vaccinia virus WR
[43] = source organism: Vibrio cholerae
[44] = source organism: Pseudomonas aeruginosa
[45] = source organism: Coxiella burnetii
[46] = source organism: Zaire ebolavirus

Sequence: AMEKSSKYY
IC50 [1, 32]: 28.5 µM
IC50 [2, 32]: ≥ 142 µM
IC50 [3, 32]: ≥ 195 µM
IC50 [4, 32]: ≥ 962 µM
IC50 [5, 32]: 11 µM
IC50 [6, 32]: ≥ 1170 µM

Sequence: FLRRRRAAL
Kd [7, 33]: 0.071 µM

Kd [8, 34]: 4.46 µM
Kd [9, 34]: ≥ 20 µM
Kd [10, 34]: ≥ 20 µM
Kd [11, 34]: ≥ 20 µM
Kd [12, 34]: ≥ 20 µM
Kd [13, 34]: 0.392 µM
Kd [14, 34]: ≥ 20 µM
Kd [15, 34]: 1.81 µM
Kd [16, 34]: 8.52 µM
Kd [17, 34]: 0.227 µM
Kd [18, 34]: ≥ 20 µM
Kd [19, 34]: ≥ 5 µM
Kd [20, 34]: ≥ 20 µM
Kd [21, 34]: ≥ 20 µM
Sequence: IAIPAHVRL

Kd [8, 35]: ≥ 20 µM
Kd [22, 36]: 1.49 µM
Kd [23, 35]: ≥ 20 µM
Kd [10, 35]: ≥ 20 µM
Kd [11, 36]: 0.242 µM
Kd [12, 36]: 0.07 µM
Kd [14, 35]: ≥ 20 µM
Kd [15, 35]: ≥ 20 µM
Kd [24, 35]: ≥ 20 µM
Kd [16, 35]: ≥ 20 µM
Kd [17, 35]: ≥ 20 µM
Kd [18, 35]: ≥ 20 µM
Kd [19, 35]: ≥ 20 µM
Kd [20, 35]: ≥ 20 µM
Kd [21, 36]: 4.37 µM
Sequence: KLGDQFGRK

Sequence: KTTLFHTFK
Kd [8, 37]: ≥ 20 µM
Kd [22, 38]: 0.00609 µM
Kd [23, 38]: 9.38 µM
Kd [9, 37]: ≥ 20 µM
Kd [10, 37]: ≥ 20 µM
Kd [11, 38]: 0.122 µM
Kd [12, 38]: 0.0162 µM
Kd [14, 37]: ≥ 20 µM
Kd [15, 37]: ≥ 20 µM
Kd [24, 37]: ≥ 20 µM
Kd [16, 37]: ≥ 20 µM
Kd [17, 37]: ≥ 20 µM
Kd [18, 37]: ≥ 20 µM
Kd [19, 37]: ≥ 20 µM
Kd [20, 37]: ≥ 20 µM
Kd [21, 38]: 0.0304 µM

Kd ([25]; source organism: Escherichia coli): 0.644 µM
Sequence: LAARKARAA

Sequence: LSMFVTNKK
Kd [26]: 0.0627 µM
Kd [27]: 3 µM

Sequence: LSSQMTSTF
IC50 [1, 39]: ≥ 129 µM
IC50 [4, 39]: 0.788 µM
IC50 [5, 39]: 4.85 µM
IC50 [6, 39]: ≥ 155 µM

Kd [28]: 2.04 µM
Kd ([29]; source organism: Homo sapiens): 0.102 µM
Kd ([12]; source organism: Homo sapiens): 10.3 µM
Kd ([15]; source organism: Homo sapiens): 0.731 µM
Kd ([16]; source organism: Homo sapiens): 0.179 µM
Kd ([17]; source organism: Homo sapiens): 3.61 µM
Kd ([18]; source organism: Homo sapiens): ≥ 39.5 µM
Sequence: LVMAPRTVL

Kd [8, 40]: 5.63 µM
Kd [22, 40]: 0.00063 µM
Kd [10, 40]: 14.5 µM
Kd [11, 40]: 0.0531 µM
Kd [12, 40]: 0.0142 µM
Kd [14, 40]: ≥ 20 µM
Kd [15, 40]: ≥ 20 µM
Kd [24, 40]: ≥ 20 µM
Kd [16, 40]: ≥ 20 µM
Kd [17, 40]: ≥ 20 µM
Kd [18, 40]: ≥ 20 µM
Kd [19, 40]: ≥ 20 µM
Kd [20, 40]: ≥ 20 µM
Kd [21, 40]: 0.0202 µM
Sequence: MTMRRRLFK

Sequence: NGYRWQHQI
Kd [9, 41]: ≥ 20 µM
Kd [10, 41]: ≥ 20 µM
Kd [11, 41]: ≥ 20 µM
Kd [12, 41]: ≥ 20 µM
Kd [13, 41]: 0.843 µM
Kd [14, 41]: ≥ 20 µM
Kd [15, 41]: ≥ 20 µM
Kd [24, 41]: 7.53 µM
Kd [17, 41]: 0.0174 µM
Kd [18, 41]: 1.35 µM
Kd [19, 41]: ≥ 20 µM
Kd [20, 41]: ≥ 20 µM
Kd [21, 41]: ≥ 20 µM

Sequence: PIDSHKGYV
IC50 [1, 42]: 29.4 µM
IC50 [6, 42]: ≥ 129 µM

Sequence: RPRIRLSAP
Kd [8, 43]: 1.89 µM
Kd [22, 43]: 3.77 µM
Kd [23, 43]: ≥ 20 µM
Kd [9, 43]: ≥ 20 µM
Kd [10, 43]: ≥ 20 µM
Kd [11, 43]: ≥ 20 µM
Kd [12, 43]: ≥ 20 µM
Kd [14, 43]: ≥ 20 µM
Kd [15, 43]: ≥ 20 µM
Kd [24, 43]: ≥ 20 µM
Kd [16, 43]: 0.0278 µM
Kd [17, 43]: ≥ 20 µM
Kd [18, 43]: ≥ 20 µM
Kd [19, 43]: ≥ 20 µM
Kd [20, 43]: ≥ 20 µM
Kd [21, 43]: ≥ 20 µM

Kd [8, 44]: ≥ 20 µM
Kd [22, 44]: 0.344 µM
Kd [23, 44]: ≥ 20 µM
Kd [10, 44]: ≥ 20 µM
Kd [11, 44]: 0.286 µM
Kd [12, 44]: 0.117 µM
Kd [14, 44]: 3.46 µM
Kd [15, 44]: ≥ 20 µM
Kd [24, 44]: ≥ 20 µM
Kd [16, 44]: ≥ 20 µM
Kd [17, 44]: ≥ 20 µM
Kd [18, 44]: ≥ 20 µM
Kd [19, 44]: ≥ 20 µM
Kd [20, 44]: ≥ 20 µM
Kd [21, 44]: 0.0287 µM
Sequence: RSFAERLDR

Sequence: RVNPGTYVY
IC50 ([1]; source organism: Variola virus): 10.3 µM
IC50 ([2]; source organism: Variola virus): 4.32 µM
IC50 ([3]; source organism: Variola virus): 0.701 µM
IC50 ([5]; source organism: Variola virus): 9.02 µM

Sequence: TLHFKQYEF
Kd ([25]; source organism: Influenza A virus (A/Wyoming/3/2003-X-147(H3N2))): 0.433 µM

Kd [8, 38]: ≥ 20 µM
Kd [23, 38]: ≥ 20 µM
Kd [10, 38]: ≥ 20 µM
Kd [11, 38]: ≥ 20 µM
Kd [12, 38]: ≥ 20 µM
Kd [13, 38]: 0.0209 µM
Kd [14, 38]: ≥ 20 µM
Kd [15, 38]: ≥ 20 µM
Kd [24, 38]: ≥ 20 µM
Kd [16, 38]: 0.0181 µM
Kd [17, 38]: ≥ 20 µM
Kd [18, 38]: ≥ 20 µM
Kd [19, 38]: ≥ 20 µM
Kd [20, 38]: ≥ 20 µM
Kd [21, 38]: ≥ 20 µM
Sequence: TPVWHVTSA

Sequence: VINWKGKEL
Kd ([7]; source organism: dengue virus type 3): ≥ 20 µM

Sequence: VPPESVEAA
Kd [8, 45]: ≥ 20 µM
Kd [22, 45]: ≥ 20 µM
Kd [23, 45]: ≥ 20 µM
Kd [9, 45]: ≥ 20 µM
Kd [10, 45]: ≥ 20 µM
Kd [11, 45]: ≥ 20 µM
Kd [12, 45]: ≥ 20 µM
Kd [13, 45]: 1.56 µM
Kd [14, 45]: ≥ 20 µM
Kd [15, 45]: ≥ 20 µM
Kd [16, 45]: 12.2 µM
Kd [17, 45]: ≥ 20 µM
Kd [18, 45]: ≥ 20 µM
Kd [19, 45]: ≥ 20 µM
Kd [20, 45]: ≥ 20 µM
Kd [21, 45]: ≥ 20 µM

Sequence: YMKAPSGAL
Kd [30]: 0.047 µM
Kd ([29]; source organism: Burkholderia mallei SAVP1): 0.005 µM
Kd [31]: 1.95 µM
Kd [13, 33]: 3.13 µM
Kd ([15]; source organism: Burkholderia mallei): 0.0385 µM
Kd [16, 33]: 0.009 µM

Sequence: YSTTIRYQA
IC50 [1, 46]: ≥ 207 µM
IC50 [6, 46]: 42.3 µM
